From patent US20160347804A1 (IPIERIAN, published 2016)
Numbering of substitutions follows the chain as printed.

B1: 7295-M6 (antibody, V domains shown)
VH: EVQLEESGAELVRSGASVTLSCTASGFNIKDYYIHWVKQRPEQGLEWIGWIDPENGDTEYAPKFQGKATMTADTSSNTAYLQLSSLTSEDTAVYYCNGAPGYWGPGTTLTVSS
VL: DIVLTQTPLSLPVSLGDPASISCRSSQTIVHSNGNTYLEWYLQKPGQSPKLLIYKVSNRFSGVPDRFSGSGSGTDFTLKISRVEAEDLGVYYCFQGSHVPFTFGSGTKLEIKR
notes: also called anti-Tau mAb 7295-M6
B2: 7295-M8 (antibody, IgG2b, V domains shown)
VH: B1 VH
VL: B1 VL
notes: also called anti-Tau mAb 7295-M8
B3: 7297-2M1 (antibody, IgG1, V domains shown)
VH: EVQLEQSGAELVKPGASVKLSCKASGYTFISNWMHWVKQRPGQGLEWIGNIDPSDSETHYNQKFKDKATLTVDKSSSTAYMQLSSLTSEDSAVYYCARRDRDGYYFDYWGQGTTLTVSS
VL: DIVLTQTPSSLSASLGGKVTITCKASQDINKYIAWYQHKPGKGPRLLIHYTSTLQSGIPSRFSGSGSGRDYSFSISNLEPEDIATYYCLQYDHLLTFGAGTKLELKR
notes: also called anti-Tau mAb 7297-2M1
B4: 7298-M1 (antibody, IgG2a, V domains shown)
VH: EVQLEESGGGLVQPGGSLSLSCAASGFTFTDYYMSWVRQPPGKALEWVALNRNKTKGYTTEYSASVKGRFTISRDNSQSILYLQMNALRAEDSATYYCARGMDYWGQGTSVTVSS
VL: DIVLTQSPTSLAVSLGQRATISCRASKSVSTSDYSYMHWYQQKPGQPPKLLIYLASNLESGVPARFSGSGSGTDFTLNIHPVEEEDAATYYCQHSRELPFTFGGGTKLEIKR
notes: also called anti-Tau mAb 7298-M1
B5: 7298-M2 (antibody, IgG2a, V domains shown)
VH: EVQLEESGGGLVKPGGSLKLSCAASGFTFSTYPMSWVRQTPEKRLEWVASISNGGSTYYPDTVKGRFTISRDNARNILYLQMSSLRSEDTAMYYCARGRDYHFDFWGQGTTLTVSS
VL: B4 VL
notes: also called anti-Tau mAb 7298-M2
B6: 7299-M5 (antibody, IgG2b, V domains shown)
VH: B3 VH with Q3K, Q6E
VL: DIVMTQSPLSLSVTIGQPASISCKSSQSLLYSDGKTYLNWLQQRPGQSPKRLVYQVSKLDPGIPDRFSGSGSETDFTLKLSRVEAEDLGVYYCLQGTYYPHTFGGGTKLEIKR
B7: 7299-M9 (antibody, IgG1, V domains shown)
VH: EVKLEQSGAELVKPGASVKLSCKASGYTFTNYWINWVKQRPGQGLEWIGNIYPGSTRANYNEKFKSKATLTVDTSSSTAYMQVSSLTSDDSAVYYCTRTHSIWGQGTQVTVSA
VL: B6 VL with M4I
B8: 7299-M2 (antibody, IgG1, V domains shown)
VH: B7 VH with E1Q, K3Q, Q6E
VL: DIVLTQTPLTLSVTIGQPASISCKSSQSLLYSDGKTFLNWLLQSPGQSPRLLIYLVSKLQSGVPDRFSGSGSGTDFTLKISRVEAEDLGVYYCVQGTHFPYTFGGGTKLEIKR
B9: IPN002 (antibody, V domains shown)
VH: EVHLVESGGALVKPGGSLKLSCAASGFSFSKYGMSWVRQTPDKRLEWVATISSSGSRTYYPDSVKGQFTISRDNAKNTLYLQMSSLKSEDTAMYYCSISWDGAMDYWGQGTSVTVSS
VL: DVLMTQTPLSLPVSLGDQASISCKSSQSIVHSNGNTYLEWYLQKPGQSPKLLVYKVSNRFSGVPDRFSGSGSGTDFTLKISRVEAEDLGTYYCFQGSLVPWAFGGGTKLEIK

What follows are binders tested against T1, full-length recombinant tau (0N4R) (UniProt P10636-6 1-383) (assay: direct binding ELISA-type assay, purified mAb, full-length recombinant tau 0N4R).
T1 construct: The screening step used biotin-labeled full-length tau; also called rTau383
T1 sequence (P10636 other isoform, or with tags, fused parts or gaps limits assumed): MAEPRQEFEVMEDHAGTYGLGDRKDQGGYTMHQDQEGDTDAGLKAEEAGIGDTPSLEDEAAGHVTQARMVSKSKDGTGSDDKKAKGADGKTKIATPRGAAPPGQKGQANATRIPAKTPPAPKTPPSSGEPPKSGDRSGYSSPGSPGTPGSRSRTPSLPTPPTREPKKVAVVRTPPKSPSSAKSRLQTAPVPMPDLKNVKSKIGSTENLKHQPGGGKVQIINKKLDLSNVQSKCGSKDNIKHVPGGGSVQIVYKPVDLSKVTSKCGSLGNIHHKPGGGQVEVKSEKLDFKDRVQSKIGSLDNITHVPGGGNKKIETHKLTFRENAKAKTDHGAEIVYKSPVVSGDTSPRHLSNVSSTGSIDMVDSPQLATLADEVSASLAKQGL

| Binder | Kd [nM] |
| --- | --- |
| B1 | 0.117 |
| B2 | 0.08 |
| B3 | 2.21 |
| B4 | 6.68 |
| B5 | 4.41 |
| B6 | 0.511 |
| B7 | 0.277 |

The binders below were run against T1, full-length recombinant tau (0N4R) (assay: direct binding ELISA, antibody titrated on rTau383, OD-450 nm).

| Binder | binding result |
| --- | --- |
| B8 | no binding (tested: log -8.2 M (about 6e-9 M)) |

Each binder was assayed against full-length recombinant tau (0N4R) (UniProt P10636 1-383) in the same assay as above.

| Binder | EC50 (read off the curve) [nM] |
| --- | --- |
| B9 | ~0.07 |

The binders below were run against T2, eTau4 (human, UniProt P10636 2-124) (assay: direct binding ELISA, antibody titrated on eTau4, OD-450 nm).
T2 construct: Recombinant eTau fragment; also called recombinant eTau4
T2 sequence (P10636 other isoform, or with tags, fused parts or gaps limits assumed): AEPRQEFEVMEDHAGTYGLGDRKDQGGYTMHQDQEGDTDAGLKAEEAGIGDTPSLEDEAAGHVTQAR

| Binder | EC50 (read off the curve) [nM] |
| --- | --- |
| B9 | ~0.1 |
| B8 | ~0.03 |

The binders below were run against T2, eTau4 (assay: direct binding assay, purified mAb, recombinant eTau fragment).

| Binder | Kd [nM] | binding result |
| --- | --- | --- |
| B8 | 0.8 |  |
| B1 |  | no binding |
| B2 |  | no binding |
| B3 |  | no binding |
| B4 |  | no binding |
| B5 |  | no binding |
| B6 | 0.5 |  |
| B7 | 0.6 |  |

What follows are binders tested against T3, eTau2 (human, UniProt P10636 2-526) in the same assay as above.
T3 construct: Recombinant eTau fragment; also called recombinant eTau2; reTau2
T3 sequence (P10636 other isoform, or with tags, fused parts or gaps limits assumed): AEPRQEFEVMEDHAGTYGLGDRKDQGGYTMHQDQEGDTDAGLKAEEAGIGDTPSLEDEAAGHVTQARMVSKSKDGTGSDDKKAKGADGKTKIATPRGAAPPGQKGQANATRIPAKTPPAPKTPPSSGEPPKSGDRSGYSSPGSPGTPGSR

| Binder | binding result | Kd [nM] |
| --- | --- | --- |
| B8 | no binding |  |
| B1 | no binding |  |
| B2 | no binding |  |
| B3 |  | 0.09 |
| B4 |  | 1 |
| B5 |  | 0.7 |
| B6 |  | 1 |
| B7 |  | 0.7 |

The binders below were run against T4, eTau1 (human, UniProt P10636 2-547) in the same assay as above.
T4 construct: also called recombinant eTau1 fragment; eTau 2-172
T4 sequence (P10636 other isoform, or with tags, fused parts or gaps limits assumed): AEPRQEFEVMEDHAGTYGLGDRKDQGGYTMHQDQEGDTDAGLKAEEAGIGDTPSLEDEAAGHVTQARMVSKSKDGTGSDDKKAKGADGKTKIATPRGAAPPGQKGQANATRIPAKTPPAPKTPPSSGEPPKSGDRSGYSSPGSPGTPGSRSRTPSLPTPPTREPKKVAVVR

| Binder | binding result | Kd [nM] |
| --- | --- | --- |
| B8 | no binding |  |
| B1 |  | 0.0528 |
| B2 |  | 0.044 |
| B3 |  | 0.1 |
| B4 |  | 3 |
| B5 |  | 2 |
| B6 |  | 0.6 |
| B7 |  | 0.6 |

What follows are binders tested against T5, eTau3 (human, UniProt P10636 2-497) in the same assay as above.
T5 construct: Recombinant eTau fragment; also called recombinant eTau3; reTau3
T5 sequence (P10636 other isoform, or with tags, fused parts or gaps limits assumed): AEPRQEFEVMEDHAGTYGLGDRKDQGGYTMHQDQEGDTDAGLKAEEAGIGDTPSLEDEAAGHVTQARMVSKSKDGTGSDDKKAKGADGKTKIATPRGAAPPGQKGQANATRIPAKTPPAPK

| Binder | binding result | Kd [nM] |
| --- | --- | --- |
| B8 | no binding |  |
| B1 | no binding |  |
| B2 | no binding |  |
| B3 | no binding |  |
| B4 |  | 0.1 |
| B5 |  | 0.08 |
| B6 |  | 0.6 |
| B7 |  | 1 |
